Experimental data taken from article PMC8177486.

What follows are binders tested against KEAP1_(312–624), human KEAP1 Kelch repeat domain (human) (UniProt Q14145) (assay: fluorescence polarisation).

| Kd [nM] | KD ratio to wild type (KD^T80S/KD^WT) | Binder |
| --- | --- | --- |
| 10 | – | Nrf2_(1–100) (domain or fragment) MMDLELPPPGLPSQQDMDLIDILWRQDIDLGVSREVFDFSQRRKEYELEKQKKLEKERQEQLQKEQEKAFFAQLQLDEETGEFLPIQPAQHIQSETSGSA |
| 22000 | – | Nrf2_(34–100) E82A (domain or fragment) REVFDFSQRRKEYELEKQKKLEKERQEQLQKEQEKAFFAQLQLDEETGAFLPIQPAQHIQSETSGSA |
| 26000 | – | Nrf2_(34–100) T80A (domain or fragment) REVFDFSQRRKEYELEKQKKLEKERQEQLQKEQEKAFFAQLQLDEEAGEFLPIQPAQHIQSETSGSA |
| 4400 | – | Nrf2_(34–100) D77A (domain or fragment) REVFDFSQRRKEYELEKQKKLEKERQEQLQKEQEKAFFAQLQLAEETGEFLPIQPAQHIQSETSGSA |
| 1700 | – | Nrf2_(34–100) E79A (domain or fragment) REVFDFSQRRKEYELEKQKKLEKERQEQLQKEQEKAFFAQLQLDEATGEFLPIQPAQHIQSETSGSA |
| 10 | – | Nrf2_(34–100) wild type (domain or fragment) REVFDFSQRRKEYELEKQKKLEKERQEQLQKEQEKAFFAQLQLDEETGEFLPIQPAQHIQSETSGSA |
| 25 | – | Nrf2_(34–100) E78A (domain or fragment) REVFDFSQRRKEYELEKQKKLEKERQEQLQKEQEKAFFAQLQLDAETGEFLPIQPAQHIQSETSGSA |
| – | 30 | Nrf2_(34–100) T80S (domain or fragment) REVFDFSQRRKEYELEKQKKLEKERQEQLQKEQEKAFFAQLQLDEESGEFLPIQPAQHIQSETSGSA |
| 18 | – | Nrf2_(34–100) F83A (domain or fragment) REVFDFSQRRKEYELEKQKKLEKERQEQLQKEQEKAFFAQLQLDEETGEALPIQPAQHIQSETSGSA |
